Experimental data reported in US20200317768A1 (published 2020).

Experiments:
Experiment in all cases: SPR (BIACORE), antibody captured, FcγR analyte
[1] = biological target: T1, cynomolgus monkey FcγRIIa2 extracellular domain, C-terminal His-tag (cynomolgus monkey)
T1 construct: also called cyno FcγRIIa2; cynoFcgRIIa2; not shown: His-tag added to C-terminus
T1 chain: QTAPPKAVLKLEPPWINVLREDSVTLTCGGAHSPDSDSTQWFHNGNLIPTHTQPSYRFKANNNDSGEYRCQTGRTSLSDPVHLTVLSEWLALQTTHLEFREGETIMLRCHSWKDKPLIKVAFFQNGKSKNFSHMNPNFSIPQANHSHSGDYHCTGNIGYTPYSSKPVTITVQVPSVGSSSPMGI
Protocol: (§1) The kinetic analysis of interactions between these antibodies and FcγR was carried out using BIACORE® T200 or BIACORE® 4000 (GE Healthcare). HBS-EP+ (GE Healthcare) was used as the running buffer, and the measurement temperature was set to 25° C. A chip produced by immobilizing Protein A. Protein A/G or mouse anti-human IgG kappa light chain (BD Biosciences) onto a Series S Sensor Chip CM4 or CM5 (GE Healthcare) by the amine-coupling method was used. […] After the measurement, the antibody captured on the chip was washed off by allowing reaction with 10 mM glycine-HCl, pH1.5 and 25 mM NaOH so that the chip was regenerated and used repeatedly. The sensorgrams obtained as measurement results were analyzed by the 1:1 Langmuir binding model using the BIACORE® Evaluation Software to calculate the binding rate constant ka (L/mol/s) and dissociation rate constant kd (l/s), and the dissociation constant KD (mol/L) was calculated from these values. […] Regarding such interactions, KD values were calculated using the following 1:1 binding model described in BIACORE® T100 Software Handbook BR1006-48 Edition AE.
(§2) The behavior of interacting molecules according to the 1:1 binding model on BIACORE® can be described by Equation 1: Req=C·R max/(KD+C)+RI, wherein, Req is a plot of steady-state binding levels to analyte concentration. C is concentration, RI is bulk refractive index contribution in the sample, and Rmax is analyte binding capacity of the surface. When this equation is rearranged, KD can be expressed as Equation 2: KD=C·Rmax/(Req−RI)−C. KD can be calculated by substituting the values of Rmax, RI, and C into Equation 1 or Equation 2. From the current measurement conditions, RI=0, C=2 μmol/L can be used.

[2] = biological target: T2, cynomolgus monkey FcγRIIa3 extracellular domain, C-terminal His-tag (cynomolgus monkey)
T2 construct: also called cyno FcγRIIa3; cynoFcgRIIa3; not shown: His-tag added to C-terminus
T2 chain: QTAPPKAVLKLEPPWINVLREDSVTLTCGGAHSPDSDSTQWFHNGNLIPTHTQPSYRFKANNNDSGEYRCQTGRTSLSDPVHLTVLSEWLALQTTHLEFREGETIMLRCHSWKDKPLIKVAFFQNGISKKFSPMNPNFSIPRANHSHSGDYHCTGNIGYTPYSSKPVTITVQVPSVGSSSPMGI
Protocol: as §1, §2

[3] = biological target: T3, human FcγRIIaH extracellular domain, C-terminal His-tag (human, UniProt P12318 34-217)
T3 construct: also called human FcγRIIa (type H); FcgRIIaH; not shown: His-tag added to C-terminus
T3 sequence: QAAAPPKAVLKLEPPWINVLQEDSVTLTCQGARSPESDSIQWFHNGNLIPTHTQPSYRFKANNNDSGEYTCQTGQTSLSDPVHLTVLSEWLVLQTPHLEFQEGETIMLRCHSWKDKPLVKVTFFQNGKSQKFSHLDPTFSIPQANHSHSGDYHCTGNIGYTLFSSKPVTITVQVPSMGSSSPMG
Protocol: as §1, §2

[4] = biological target: T4, human FcγRIIaR extracellular domain, C-terminal His-tag (human, UniProt P12318 34-217)
T4 construct: also called human FcγRIIa (type R); FcgRIIaR; not shown: His-tag added to C-terminus
T4 chain: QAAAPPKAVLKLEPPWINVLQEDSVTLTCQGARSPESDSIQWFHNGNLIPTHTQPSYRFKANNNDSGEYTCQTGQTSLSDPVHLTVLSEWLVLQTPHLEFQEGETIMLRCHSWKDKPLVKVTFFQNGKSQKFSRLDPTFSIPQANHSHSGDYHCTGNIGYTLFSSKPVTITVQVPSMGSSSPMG
Protocol: as §1, §2

[5] = biological target: T5, human FcγRIIIaV extracellular domain, C-terminal His-tag (human, UniProt P08637 17-208)
T5 construct: also called FcgRIIIaV; not shown: His-tag added to C-terminus
Protocol: as §1, §2

T5 sequence (P08637 17-208 F176V): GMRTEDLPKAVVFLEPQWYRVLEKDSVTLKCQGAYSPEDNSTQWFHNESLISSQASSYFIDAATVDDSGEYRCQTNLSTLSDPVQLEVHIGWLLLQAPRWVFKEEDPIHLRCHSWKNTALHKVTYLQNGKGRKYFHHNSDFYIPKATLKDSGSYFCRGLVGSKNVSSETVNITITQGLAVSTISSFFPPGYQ

| Binder | Kd [1] [nM] | Kd [2] [nM] | Kd [3] [nM] | Kd [4] [nM] | Kd [5] [nM] |
| --- | --- | --- | --- | --- | --- |
| M103205H795-MY335 / M103202L889-SK1 (antibody, human IgG1, kappa, CH with G236T/H268D/Q311R/A330K/D413K against SG1 (EU numbering); also called MS1032LO06-MY335) heavy: QVTLKESGPVLVKPTETLTLTCTVSGIDLSHDDISWVRQAPGKGLEWVGIISYAGSTYYASWAKGRLTISKDTSKNQVVLTMTNMDPVDTATYYCARGVPAYSHGGDLWGQGTLVTVSSASTKGPSVFPLAPSSKSTSGGTAALGCLVKDYFPEPVTVSWNSGALTSGVHTFPAVLQSSGLYSLSSVVTVPSSSLGTQTYICNVNHKPSNTKVDKKVEPKSCDKTHTCPPCPAPELLTGPSVFLFPPKPKDTLMISRTPEVTCVVVDVSDEDPEVKFNWYVDGVEVHNAKTKPREEQYNSTYRVVSVLTVLHRDWLNGKEYKCKVSNKALPKPIEKTISKAKGQPREPQVYTLPPSREEMTKNQVSLTCLVKGFYPSDIAVEWESNGQPENNYKTTPPVLDSDGSFFLYSKLTVKKSRWQQGNVFSCSVMHEALHNHYTQKSLSLSP light: DIVMTQSPATLSLSPGERATLSCTSSQSVYHANWLSWFQQKPGQPPKLLIYWASTLAYGVPSRFSGSGSGTDFTLTISSLQPEDAATYYCAGGYGGGRYAFGQGTKVEIKRTVAAPSVFIFPPSDEQLKSGTASVVCLLNNFYPREAKVQWKVDNALQSGNSQESVTEQDSKDSTYSLSSTLTLSKADYEKHKVYACEVTHQGLSSPVTKSFNRGEC | 1700 | 2700 | 290 | 290 | 5000 |
| M103205H795-MY344 / M103202L889-SK1 (antibody, human IgG1, kappa, CH with G236N/H268D/Q295L/Q311R/A330K/D413K against SG1 (EU numbering); also called MS1032LO06-MY344) heavy: QVTLKESGPVLVKPTETLTLTCTVSGIDLSHDDISWVRQAPGKGLEWVGIISYAGSTYYASWAKGRLTISKDTSKNQVVLTMTNMDPVDTATYYCARGVPAYSHGGDLWGQGTLVTVSSASTKGPSVFPLAPSSKSTSGGTAALGCLVKDYFPEPVTVSWNSGALTSGVHTFPAVLQSSGLYSLSSVVTVPSSSLGTQTYICNVNHKPSNTKVDKKVEPKSCDKTHTCPPCPAPELLNGPSVFLFPPKPKDTLMISRTPEVTCVVVDVSDEDPEVKFNWYVDGVEVHNAKTKPREELYNSTYRVVSVLTVLHRDWLNGKEYKCKVSNKALPKPIEKTISKAKGQPREPQVYTLPPSREEMTKNQVSLTCLVKGFYPSDIAVEWESNGQPENNYKTTPPVLDSDGSFFLYSKLTVKKSRWQQGNVFSCSVMHEALHNHYTQKSLSLSP light: DIVMTQSPATLSLSPGERATLSCTSSQSVYHANWLSWFQQKPGQPPKLLIYWASTLAYGVPSRFSGSGSGTDFTLTISSLQPEDAATYYCAGGYGGGRYAFGQGTKVEIKRTVAAPSVFIFPPSDEQLKSGTASVVCLLNNFYPREAKVQWKVDNALQSGNSQESVTEQDSKDSTYSLSSTLTLSKADYEKHKVYACEVTHQGLSSPVTKSFNRGEC | 1100 | 2200 | 670 | 1200 | 19000 |
| M103205H795-MY351 / M103202L889-SK1 (antibody, human IgG1, kappa, CH with G236N/H268D/Q311R/A330K/D413K against SG1 (EU numbering); also called MS1032LO06-MY351) heavy: QVTLKESGPVLVKPTETLTLTCTVSGIDLSHDDISWVRQAPGKGLEWVGIISYAGSTYYASWAKGRLTISKDTSKNQVVLTMTNMDPVDTATYYCARGVPAYSHGGDLWGQGTLVTVSSASTKGPSVFPLAPSSKSTSGGTAALGCLVKDYFPEPVTVSWNSGALTSGVHTFPAVLQSSGLYSLSSVVTVPSSSLGTQTYICNVNHKPSNTKVDKKVEPKSCDKTHTCPPCPAPELLNGPSVFLFPPKPKDTLMISRTPEVTCVVVDVSDEDPEVKFNWYVDGVEVHNAKTKPREEQYNSTYRVVSVLTVLHRDWLNGKEYKCKVSNKALPKPIEKTISKAKGQPREPQVYTLPPSREEMTKNQVSLTCLVKGFYPSDIAVEWESNGQPENNYKTTPPVLDSDGSFFLYSKLTVKKSRWQQGNVFSCSVMHEALHNHYTQKSLSLSP light: DIVMTQSPATLSLSPGERATLSCTSSQSVYHANWLSWFQQKPGQPPKLLIYWASTLAYGVPSRFSGSGSGTDFTLTISSLQPEDAATYYCAGGYGGGRYAFGQGTKVEIKRTVAAPSVFIFPPSDEQLKSGTASVVCLLNNFYPREAKVQWKVDNALQSGNSQESVTEQDSKDSTYSLSSTLTLSKADYEKHKVYACEVTHQGLSSPVTKSFNRGEC | 760 | 1900 | 1000 | 1800 | 14000 |
| M103205H795-PK2 / M103202L889-SK1 (antibody, human IgG1, kappa, CH with G236N/H268E/A330K/P396M/S400R/D413K against SG1 (EU numbering); also called MS1032LO06-PK2; MS103205H795-PK2) heavy: QVTLKESGPVLVKPTETLTLTCTVSGIDLSHDDISWVRQAPGKGLEWVGIISYAGSTYYASWAKGRLTISKDTSKNQVVLTMTNMDPVDTATYYCARGVPAYSHGGDLWGQGTLVTVSSASTKGPSVFPLAPSSKSTSGGTAALGCLVKDYFPEPVTVSWNSGALTSGVHTFPAVLQSSGLYSLSSVVTVPSSSLGTQTYICNVNHKPSNTKVDKKVEPKSCDKTHTCPPCPAPELLNGPSVFLFPPKPKDTLMISRTPEVTCVVVDVSEEDPEVKFNWYVDGVEVHNAKTKPREEQYNSTYRVVSVLTVLHQDWLNGKEYKCKVSNKALPKPIEKTISKAKGQPREPQVYTLPPSREEMTKNQVSLTCLVKGFYPSDIAVEWESNGQPENNYKTTPMVLDRDGSFFLYSKLTVKKSRWQQGNVFSCSVMHEALHNHYTQKSLSLSP light: DIVMTQSPATLSLSPGERATLSCTSSQSVYHANWLSWFQQKPGQPPKLLIYWASTLAYGVPSRFSGSGSGTDFTLTISSLQPEDAATYYCAGGYGGGRYAFGQGTKVEIKRTVAAPSVFIFPPSDEQLKSGTASVVCLLNNFYPREAKVQWKVDNALQSGNSQESVTEQDSKDSTYSLSSTLTLSKADYEKHKVYACEVTHQGLSSPVTKSFNRGEC | 1300 | 3800 | 570 | 1100 | 13000 |
